Data published in article PMC10063446 (Nature Immunology, 2023).
Read-outs that look alike come from different tables or passages of the source.

B1: P5S-2G8 (antibody, V domains shown)
VH: QMQLVQSGAEVKKTGSSVKVSCKASGSTFTHRYLHWVRQAPGQALEWMGWITPFNGDTNYAQKFQDRVTITRDGSMSTVYMDLSSLRSEDTAMYYCAAGARWGDSYYYYGMDVWGQGTAVTVSS
VL: QSALTQPPSASGSPGQSVTISCTGTSSDVGGYNYVSWYQQHPDKAPKLMIYEVSKRPSGVPDRFSGSKSGNTASLTVSGLQAEDEADYYCSSYAGNNNLVFGTGTKVTVL
B2: P2-1B1 (full IgG1) (antibody, V domains shown)
VH: QVQLVQSGAEVKRPGSSVKVSCKASGGTFSSYAISWVRQAPGQGPEWMGGIIPIFGTPHNAQKFQGRVTITADESTSTAYMELSSLRSEDTAMYYCSRTKGDILTGYTDYYFDSWGQGTLVTVSS
VL: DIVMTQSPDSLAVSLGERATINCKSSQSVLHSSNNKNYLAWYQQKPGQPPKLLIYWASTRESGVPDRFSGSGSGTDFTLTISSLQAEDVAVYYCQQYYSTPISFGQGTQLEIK
B3: P5-1C8 (full IgG1) (antibody, V domains shown)
VH: EVQLVESGGGLIQPGGSLRLSCAASEIIVSRNYMNWVRQAPGKGLEWVSVIYSGGSTFYADSVKGRFTISRDNSENTLYLQMNSLRAEDTAVYYCARGYGDYYFDYWGRGTLVTVSS
VL: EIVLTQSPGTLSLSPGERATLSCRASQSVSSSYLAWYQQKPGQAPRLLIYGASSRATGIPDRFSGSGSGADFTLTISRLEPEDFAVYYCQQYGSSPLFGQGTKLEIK
B4: P5-1H1 (full IgG1) (antibody, V domains shown)
VH: EVQLVESGGGLIQPGGSLRLSCAASGITVSSNYMTWVRQPPGKGLEWVSVIYSGGSTFYADPVKGRFTISRDNSRNTLYLQMNSLRAEDTAVYYCARDLQVYGMDVWGQGTTVTVSS
VL: DIQLTQSPSFLSASVGDRVTITCRASQGISNFLAWYQQKPGKAPKLLIYAASTLQGGVPSTFSGSGSGTEFTLTISSLQPEDFATYYCQHLNDYPLFGGGTRVEIK
B5: P5-1H1 Fab (Fab, V domains shown)
VH: EVQLVESGGGLIQPGGSLRLSCAASGITVSSNYMTWVRQPPGKGLEWVSVIYSGGSTFYADPVKGRFTISRDNSRNTLYLQMNSLRAEDTAVYYCARDLQVYGMDVWGQGTTVTVSS
VL: DIQLTQSPSFLSASVGDRVTITCRASQGISNFLAWYQQKPGKAPKLLIYAASTLQGGVPSTFSGSGSGTEFTLTISSLQPEDFATYYCQHLNDYPLFGGGTRVEIK

Tests used:
[1] = target: T1, recombinant RBD protein of wild-type SARS-CoV-2 (ELISA antigen) (SARS-CoV-2 wild-type, UniProt P0DTC2)
[2] = target: recombinant wild-type SARS-CoV-2 S trimer (ELISA antigen) (SARS-CoV-2 wild-type, UniProt P0DTC2)
[3] = target: SARS-CoV-2 RBD immobilised on the CM5 chip (SARS-CoV-2 wild-type (assumed)); assay: SPR; details: both partners purified
[4] = target: T1, recombinant RBD protein of wild-type …; assay: ELISA; details: one partner purified
SARS-CoV-2 wild-type RBD = target: T2, SARS-CoV-2 wild-type RBD (SARS-CoV-2 wild-type); assay: crystal structure; details: both partners purified
T2 construct: also called WT-RBD

Row | Binder | binding result [1] | binding result [2] | binding result [3] | binding result [4] | binding result (SARS-CoV-2 wild-type RBD)
1 | B1 | binds | binds | – | – | –
2 | B2 | – | – | binds | binds | –
3 | B3 | – | – | binds | binds | –
4 | B4 | – | – | binds | binds | –
5 | B5 | – | – | – | – | binds
